From patent publication US11795460B2, “Compositions and methods for TTR gene editing and treating ATTR amyloidosis” (Intellia Therapeutics, Inc., priority 2017, dated 2023)
Strand notation (5' to 3'): a small letter for the sugar, then the base; units joined by * are phosphorothioate-linked, units joined directly phosphodiester-linked; [ ] holds rarer units or linkages, { } end groups; capitals alone tell only the bases. m = 2'-O-methyl; r = 2'-OH (RNA)

Assays:
TTR [1] = test: TTR editing in primary human hepatocytes transfected with Spy Cas9 mRNA and sgRNAs (Table 13); format: cell-based; conditions: primary human hepatocytes co-transfected with Spy Cas9 mRNA (SEQ ID NO:2) and sgRNAs, 12.5 nM
Description: Primary liver hepatocytes. Primary human liver hepatocytes (PHH) and primary cynomolgus liver hepatocytes (PCH) (Gibco) were cultured per the manufacturer's protocol (Invitrogen, protocol 11.28.2012). In brief, the cells were thawed and resuspended in hepatocyte thawing medium with supplements (Gibco, Cat. CM7000) followed by centrifugation at 100 g for 10 minutes for human and 80 g for 4 minutes for cyno. The supernatant was discarded and the pelleted cells resuspended in hepatocyte plating medium plus supplement pack (Invitrogen, Cat. A1217601 and CM3000). Cells were counted and plated on Bio-coat collagen I coated 96-well plates (ThermoFisher, Cat. 877272) at a density of 33,000 cells/well for human or 60,000 cells/well for cyno (or 65,000 cells/well when assaying effects on TTR protein, described further below). Plated cells were allowed to settle and adhere for 6 or 24 hours in a tissue culture incubator at 37° C. and 5% CO2 atmosphere. After incubation cells were checked for monolayer formation and media was replaced with hepatocyte culture medium with serum-free supplement pack (Invitrogen, Cat. A1217601 and CM4000).
Lipofectamine RNAiMax (ThermoFisher, Cat. 13778150) based transfections were conducted as per the manufacturer's protocol. Cells were sequentially transfected with a lipoplex containing Spy Cas9 mRNA (100 ng), Lipofectamine RNAiMax (0.4 […]) and tracer RNA ([…]), Lipofectamine RNAiMax (0.4 μL/well) and OptiMem.
Transfected cells were harvested post-transfection at 24, 48, or 72 hours. The genomic DNA was extracted from each well of a 96-well plate using 50 μL/well BuccalAmp DNA Extraction solution (Epicentre, Cat. QE09050) per manufacturer's protocol. All DNA samples were subjected to PCR and subsequent NGS analyses, as described herein.
To quantitatively determine the efficiency of editing at the target location in the genome, sequencing was utilized to identify the presence of insertions and deletions introduced by gene editing.
Primers were designed around the target site within the gene of interest (e.g. TTR), and the genomic area of interest was amplified.
Additional PCR was performed per the manufacturer's protocols (Illumina) to add chemistry for sequencing. The amplicons were sequenced on an Illumina MiSeq instrument. The reads were aligned to a reference genome (e.g., the human reference genome (hg38), the cynomologus reference genome (mf5), the rat reference genome (rn6), or the mouse reference genome (mm10)) after eliminating those having low quality scores. The resulting files containing the reads were mapped to the reference genome (BAM files), where reads that overlapped the target region of interest were selected and the number of wild type reads versus the number of reads which contain an insertion, substitution, or deletion was calculated.
The editing percentage (e.g., the “editing efficiency” or “percent editing” or “indel frequency”) is defined as the total number of sequence reads with insertions/deletions (“indels”) or substitutions over the total number of sequence reads, including wild type.
Guides in modified sgRNA format targeting human and/or cyno TTR were delivered to primary human hepatocytes and primary cyno hepatocytes as described in Example 1. Percent editing was determined for crRNAs comprising each guide sequence across each cell type and the guide sequences were then rank ordered based on highest % edit. The screening data for the guide sequences in Table 2 in both cell lines are listed below (Table 12 through 15).

TTR [2] = test: TTR editing in primary cyno hepatocytes treated with LNP formulated Spy Cas9 mRNA (SEQ ID NO: 2) and sgRNAs (Tables 17, 18); format: cell-based, cynomolgus monkey; conditions: Table 17, LNP formulated Spy Cas9 mRNA (SEQ ID NO: 2) and sgRNA, 12.5 ng mRNA, 3.9 nM sgRNA, 72 hours
Outline: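 Primary cynomolgus hepatocytes, 24 h after plating, dosed with LNPs (N:P about 4.5 or 6, mRNA:gRNA 1:1 by weight) pre-incubated 5 min at 37° C. in medium with 6% cyno serum, in an 8-point 2-fold dose response. Editing = indel/substitution reads over total reads by amplicon MiSeq sequencing.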

Molecule	Avg % Deletion (TTR [1]) [%]	Avg % Edit (TTR [1]) [%]	Avg % Insert (TTR [1]) [%]	12.5 ng mRNA, 3.9 nM sgRNA Avg % Edit (TTR [2]) [%]
G000495: TTR sgRNA modified sequence, Human, SEQ ID No. 102; guide sequence of CR003343 (nucleic acid) guide: mC*mA*mG*rArGrGrArCrArCrUrUrGrGrArUrUrCrArCrGrUrUrUrUrArGrAmGmCmUmAmGmAmAmAmUmAmGmCrArArGrUrUrArArArArUrArArGrGrCrUrArGrUrCrCrGrUrUrArUrCrAmAmCmUmUmGmAmAmAmAmAmGmUmGmGmCmAmCmCmGmAmGmUmCmGmGmUmGmCmU*mU*mU*mU	4.45	47.77	43.40	0.73
G000500: TTR sgRNA modified sequence, Human, SEQ ID No. 107; guide sequence of CR003337 (nucleic acid) guide: mC*mC*mA*rGrUrCrCrArGrCrArArGrGrCrArGrArGrGrGrUrUrUrUrArGrAmGmCmUmAmGmAmAmAmUmAmGmCrArArGrUrUrArArArArUrArArGrGrCrUrArGrUrCrCrGrUrUrArUrCrAmAmCmUmUmGmAmAmAmAmAmGmUmGmGmCmAmCmCmGmAmGmUmCmGmGmUmGmCmU*mU*mU*mU	3.10	35.50	32.47	10.47
G000572: TTR sgRNA modified sequence, Human, SEQ ID No. 113; guide sequence of CR003385 (nucleic acid) guide: mC*mC*mC*rCrUrArCrUrCrCrUrArUrUrCrCrArCrCrArGrUrUrUrUrArGrAmGmCmUmAmGmAmAmAmUmAmGmCrArArGrUrUrArArArArUrArArGrGrCrUrArGrUrCrCrGrUrUrArUrCrAmAmCmUmUmGmAmAmAmAmAmGmUmGmGmCmAmCmCmGmAmGmUmCmGmGmUmGmCmU*mU*mU*mU	13.85	55.42	41.62	30.60
G000571: TTR sgRNA modified sequence, Human, SEQ ID No. 112; guide sequence of CR005301 (nucleic acid) guide: mG*mU*mC*rArCrArGrArArArCrArCrUrCrArCrCrGrUrGrUrUrUrUrArGrAmGmCmUmAmGmAmAmAmUmAmGmCrArArGrUrUrArArArArUrArArGrGrCrUrArGrUrCrCrGrUrUrArUrCrAmAmCmUmUmGmAmAmAmAmAmGmUmGmGmCmAmCmCmGmAmGmUmCmGmGmUmGmCmU*mU*mU*mU	6.13	20.47	14.47	20.20
G000501: TTR sgRNA modified sequence, Human, SEQ ID No. 108; guide sequence of CR005300 (nucleic acid) guide: mU*mC*mA*rCrArGrArArArCrArCrUrCrArCrCrGrUrArGrUrUrUrUrArGrAmGmCmUmAmGmAmAmAmUmAmGmCrArArGrUrUrArArArArUrArArGrGrCrUrArGrUrCrCrGrUrUrArUrCrAmAmCmUmUmGmAmAmAmAmAmGmUmGmGmCmAmCmCmGmAmGmUmCmGmGmUmGmCmU*mU*mU*mU	6.62	40.32	33.82	1.37
G000570: TTR sgRNA modified sequence, Human, SEQ ID No. 111; guide sequence of CR003347 (nucleic acid) guide: mC*mA*mU*rUrGrArUrGrGrCrArGrGrArCrUrGrCrCrUrGrUrUrUrUrArGrAmGmCmUmAmGmAmAmAmUmAmGmCrArArGrUrUrArArArArUrArArGrGrCrUrArGrUrCrCrGrUrUrArUrCrAmAmCmUmUmGmAmAmAmAmAmGmUmGmGmCmAmCmCmGmAmGmUmCmGmGmUmGmCmU*mU*mU*mU	0.35	68.42	68.08	17.30
G000567: TTR sgRNA modified sequence, Human, SEQ ID No. 109; guide sequence of CR003352 (nucleic acid) guide: mG*mA*mA*rArGrGrCrUrGrCrUrGrArUrGrArCrArCrCrGrUrUrUrUrArGrAmGmCmUmAmGmAmAmAmUmAmGmCrArArGrUrUrArArArArUrArArGrGrCrUrArGrUrCrCrGrUrUrArUrCrAmAmCmUmUmGmAmAmAmAmAmGmUmGmGmCmAmCmCmGmAmGmUmCmGmGmUmGmCmU*mU*mU*mU	10.02	27.28	17.35	0.10
G000568: TTR sgRNA modified sequence, Human, SEQ ID No. 110; guide sequence of CR003391 (nucleic acid) guide: mG*mG*mC*rUrGrUrCrGrUrCrArCrCrArArUrCrCrCrArGrUrUrUrUrArGrAmGmCmUmAmGmAmAmAmUmAmGmCrArArGrUrUrArArArArUrArArGrGrCrUrArGrUrCrCrGrUrUrArUrCrAmAmCmUmUmGmAmAmAmAmAmGmUmGmGmCmAmCmCmGmAmGmUmCmGmGmUmGmCmU*mU*mU*mU	0.80	43.75	43.00	9.25
G000497: TTR sgRNA modified sequence, Human, SEQ ID No. 104; guide sequence of CR003335 (nucleic acid) guide: mC*mU*mG*rCrUrCrCrUrCrCrUrCrUrGrCrCrUrUrGrCrGrUrUrUrUrArGrAmGmCmUmAmGmAmAmAmUmAmGmCrArArGrUrUrArArArArUrArArGrGrCrUrArGrUrCrCrGrUrUrArUrCrAmAmCmUmUmGmAmAmAmAmAmGmUmGmGmCmAmCmCmGmAmGmUmCmGmGmUmGmCmU*mU*mU*mU	5.85	40.33	34.48	0.23
G000498: TTR sgRNA modified sequence, Human, SEQ ID No. 105; guide sequence of CR003359 (nucleic acid) guide: mA*mG*mU*rGrArGrUrCrUrGrGrArGrArGrCrUrGrCrArGrUrUrUrUrArGrAmGmCmUmAmGmAmAmAmUmAmGmCrArArGrUrUrArArArArUrArArGrGrCrUrArGrUrCrCrGrUrUrArUrCrAmAmCmUmUmGmAmAmAmAmAmGmUmGmGmCmAmCmCmGmAmGmUmCmGmGmUmGmCmU*mU*mU*mU	14.90	60.02	45.20	37.90
